Assay results: US20120270784A1 (THERATECHNOLOGIES, published 2012)
Where no end group is shown, it is not given here.

T1: human GRF receptor (human, UniProt Q02643 23-423)
T1 sequence (looked up): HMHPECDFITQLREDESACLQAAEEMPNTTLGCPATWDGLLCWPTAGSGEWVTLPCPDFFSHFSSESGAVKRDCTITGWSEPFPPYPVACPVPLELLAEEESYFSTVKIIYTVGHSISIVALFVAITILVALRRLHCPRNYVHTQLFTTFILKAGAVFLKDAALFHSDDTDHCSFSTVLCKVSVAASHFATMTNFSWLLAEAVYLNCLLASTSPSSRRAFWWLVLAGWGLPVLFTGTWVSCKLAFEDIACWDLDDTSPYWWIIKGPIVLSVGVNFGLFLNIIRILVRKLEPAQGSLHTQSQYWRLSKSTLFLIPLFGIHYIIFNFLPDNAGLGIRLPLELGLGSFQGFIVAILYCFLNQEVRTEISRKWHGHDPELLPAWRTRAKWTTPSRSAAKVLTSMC


Target: T1, human GRF receptor
Experiment: cell-based or functional assay

EC50 as assessed by alkaline phosphatase (AP) induction [nM] | Binder
0.2 | YGDAIFTDSYRKVLAQLKARQDILARAARAAR-NH2 [YGDAIFTDSYRKVLAQLKARQDILARAARAAR-NH2 (SEQ ID NO: 34)]
2.52 | YLDAIFTDSYRKVLAQLKARQDILARAARAAR-NH2 [YLDAIFTDSYRKVLAQLKARQDILARAARAAR-NH2 (SEQ ID NO: 35)]
0.2 | YXDAIFTDSYRKVLAQLKARQDILARAARAARX (HELM PEPTIDE1{Y.[dA].D.A.I.F.T.D.S.Y.R.K.V.L.A.Q.L.K.A.R.Q.D.I.L.A.R.A.A.R.A.A.R.[O=C([C@H](CCO)N[*:1])[*:2]].[am]}$$$$V2.0; N-terminus assumed; SMILES CC[C@H](C)[C@H](NC(=O)[C@H](C)NC(=O)[C@H](CC(=O)O)NC(=O)[C@@H](C)NC(=O)[C@@H](N)Cc1ccc(O)cc1)C(=O)N[C@@H](Cc1ccccc1)C(=O)N[C@H](C(=O)N[C@@H](CC(=O)O)C(=O)N[C@@H](CO)C(=O)N[C@@H](Cc1ccc(O)cc1)C(=O)N[C@@H](CCCNC(=N)N)C(=O)N[C@@H](CCCCN)C(=O)N[C@H](C(=O)N[C@@H](CC(C)C)C(=O)N[C@@H](C)C(=O)N[C@@H](CCC(N)=O)C(=O)N[C@@H](CC(C)C)C(=O)N[C@@H](CCCCN)C(=O)N[C@@H](C)C(=O)N[C@@H](CCCNC(=N)N)C(=O)N[C@@H](CCC(N)=O)C(=O)N[C@@H](CC(=O)O)C(=O)N[C@H](C(=O)N[C@@H](CC(C)C)C(=O)N[C@@H](C)C(=O)N[C@@H](CCCNC(=N)N)C(=O)N[C@@H](C)C(=O)N[C@@H](C)C(=O)N[C@@H](CCCNC(=N)N)C(=O)N[C@@H](C)C(=O)N[C@@H](C)C(=O)N[C@@H](CCCNC(=N)N)C(=O)N[C@@H](CCO)C(N)=O)[C@@H](C)CC)C(C)C)[C@@H](C)O) [Y-a-DAIFTDSYRKVLAQLKARQDILARAARAAR-HoSer-NH2 (SEQ ID NO: 37)]
0.25 | YSDAIFTDSYRKVLAQLKARQDILARAARAAR-NH2 [YSDAIFTDSYRKVLAQLKARQDILARAARAAR-NH2 (SEQ ID NO: 33)]

Second part, the binder before the results:

Binder | EC50 as assessed by alkaline phosphatase (AP) induction [nM]
YADAIFTDSYRKVLAQLSARQDILAR (HELM PEPTIDE1{[CC/C=C/CC(=O)[*:2]].Y.A.D.A.I.F.T.D.S.Y.R.K.V.L.A.Q.L.S.A.R.Q.D.I.L.A.R.[am]}$$$$V2.0; SMILES CC/C=C/CC(=O)N[C@@H](Cc1ccc(O)cc1)C(=O)N[C@@H](C)C(=O)N[C@@H](CC(=O)O)C(=O)N[C@@H](C)C(=O)N[C@H](C(=O)N[C@@H](Cc1ccccc1)C(=O)N[C@H](C(=O)N[C@@H](CC(=O)O)C(=O)N[C@@H](CO)C(=O)N[C@@H](Cc1ccc(O)cc1)C(=O)N[C@@H](CCCNC(=N)N)C(=O)N[C@@H](CCCCN)C(=O)N[C@H](C(=O)N[C@@H](CC(C)C)C(=O)N[C@@H](C)C(=O)N[C@@H](CCC(N)=O)C(=O)N[C@@H](CC(C)C)C(=O)N[C@@H](CO)C(=O)N[C@@H](C)C(=O)N[C@@H](CCCNC(=N)N)C(=O)N[C@@H](CCC(N)=O)C(=O)N[C@@H](CC(=O)O)C(=O)N[C@H](C(=O)N[C@@H](CC(C)C)C(=O)N[C@@H](C)C(=O)N[C@@H](CCCNC(=N)N)C(N)=O)[C@@H](C)CC)C(C)C)[C@@H](C)O)[C@@H](C)CC) [Trans-3-hexenoyl-YADAIFTDSYRKVLAQLSARQDILAR-NH2 (SEQ ID NO: 45)] | 7.55
YADAIFTDSYRKVLAQLSARQDIMSR (HELM PEPTIDE1{[CC/C=C/CC(=O)[*:2]].Y.A.D.A.I.F.T.D.S.Y.R.K.V.L.A.Q.L.S.A.R.Q.D.I.M.S.R.[am]}$$$$V2.0; SMILES CC/C=C/CC(=O)N[C@@H](Cc1ccc(O)cc1)C(=O)N[C@@H](C)C(=O)N[C@@H](CC(=O)O)C(=O)N[C@@H](C)C(=O)N[C@H](C(=O)N[C@@H](Cc1ccccc1)C(=O)N[C@H](C(=O)N[C@@H](CC(=O)O)C(=O)N[C@@H](CO)C(=O)N[C@@H](Cc1ccc(O)cc1)C(=O)N[C@@H](CCCNC(=N)N)C(=O)N[C@@H](CCCCN)C(=O)N[C@H](C(=O)N[C@@H](CC(C)C)C(=O)N[C@@H](C)C(=O)N[C@@H](CCC(N)=O)C(=O)N[C@@H](CC(C)C)C(=O)N[C@@H](CO)C(=O)N[C@@H](C)C(=O)N[C@@H](CCCNC(=N)N)C(=O)N[C@@H](CCC(N)=O)C(=O)N[C@@H](CC(=O)O)C(=O)N[C@H](C(=O)N[C@@H](CCSC)C(=O)N[C@@H](CO)C(=O)N[C@@H](CCCNC(=N)N)C(N)=O)[C@@H](C)CC)C(C)C)[C@@H](C)O)[C@@H](C)CC) [Trans-3-hexenoyl-YADAIFTDSYRKVLAQLSARQDIMSR-NH2 (SEQ ID NO: 44)] | 9.73
YADAIFTDSYRKVLAQLSARQDILSX (HELM PEPTIDE1{[CC/C=C/CC(=O)[*:2]].Y.A.D.A.I.F.T.D.S.Y.R.K.V.L.A.Q.L.S.A.R.Q.D.I.L.S.[dR].[am]}$$$$V2.0; SMILES CC/C=C/CC(=O)N[C@@H](Cc1ccc(O)cc1)C(=O)N[C@@H](C)C(=O)N[C@@H](CC(=O)O)C(=O)N[C@@H](C)C(=O)N[C@H](C(=O)N[C@@H](Cc1ccccc1)C(=O)N[C@H](C(=O)N[C@@H](CC(=O)O)C(=O)N[C@@H](CO)C(=O)N[C@@H](Cc1ccc(O)cc1)C(=O)N[C@@H](CCCNC(=N)N)C(=O)N[C@@H](CCCCN)C(=O)N[C@H](C(=O)N[C@@H](CC(C)C)C(=O)N[C@@H](C)C(=O)N[C@@H](CCC(N)=O)C(=O)N[C@@H](CC(C)C)C(=O)N[C@@H](CO)C(=O)N[C@@H](C)C(=O)N[C@@H](CCCNC(=N)N)C(=O)N[C@@H](CCC(N)=O)C(=O)N[C@@H](CC(=O)O)C(=O)N[C@H](C(=O)N[C@@H](CC(C)C)C(=O)N[C@@H](CO)C(=O)N[C@H](CCCNC(=N)N)C(N)=O)[C@@H](C)CC)C(C)C)[C@@H](C)O)[C@@H](C)CC) [Trans-3-hexenoyl-YADAIFTDSYRKVLAQLSARQDILS-r-NH2 (SEQ ID NO: 46)] | 15.1
YGDAIFTDSYRKVLAQLKARQDILARAARAARX (HELM PEPTIDE1{Y.G.D.A.I.F.T.D.S.Y.R.K.V.L.A.Q.L.K.A.R.Q.D.I.L.A.R.A.A.R.A.A.R.[O=C([C@H](CCO)N[*:1])[*:2]].[am]}$$$$V2.0; N-terminus assumed; SMILES CC[C@H](C)[C@H](NC(=O)[C@H](C)NC(=O)[C@H](CC(=O)O)NC(=O)CNC(=O)[C@@H](N)Cc1ccc(O)cc1)C(=O)N[C@@H](Cc1ccccc1)C(=O)N[C@H](C(=O)N[C@@H](CC(=O)O)C(=O)N[C@@H](CO)C(=O)N[C@@H](Cc1ccc(O)cc1)C(=O)N[C@@H](CCCNC(=N)N)C(=O)N[C@@H](CCCCN)C(=O)N[C@H](C(=O)N[C@@H](CC(C)C)C(=O)N[C@@H](C)C(=O)N[C@@H](CCC(N)=O)C(=O)N[C@@H](CC(C)C)C(=O)N[C@@H](CCCCN)C(=O)N[C@@H](C)C(=O)N[C@@H](CCCNC(=N)N)C(=O)N[C@@H](CCC(N)=O)C(=O)N[C@@H](CC(=O)O)C(=O)N[C@H](C(=O)N[C@@H](CC(C)C)C(=O)N[C@@H](C)C(=O)N[C@@H](CCCNC(=N)N)C(=O)N[C@@H](C)C(=O)N[C@@H](C)C(=O)N[C@@H](CCCNC(=N)N)C(=O)N[C@@H](C)C(=O)N[C@@H](C)C(=O)N[C@@H](CCCNC(=N)N)C(=O)N[C@@H](CCO)C(N)=O)[C@@H](C)CC)C(C)C)[C@@H](C)O) [YGDAIFTDSYRKVLAQLKARQDILARAARAAR-HoSer-NH2 (SEQ ID NO: 36)] | 0.2
YADAIFTDSYRKVLAQLKARQDILARAARAAR (HELM PEPTIDE1{[CC/C=C/CC(=O)[*:2]].Y.A.D.A.I.F.T.D.S.Y.R.K.V.L.A.Q.L.K.A.R.Q.D.I.L.A.R.A.A.R.A.A.R.[am]}$$$$V2.0; SMILES CC/C=C/CC(=O)N[C@@H](Cc1ccc(O)cc1)C(=O)N[C@@H](C)C(=O)N[C@@H](CC(=O)O)C(=O)N[C@@H](C)C(=O)N[C@H](C(=O)N[C@@H](Cc1ccccc1)C(=O)N[C@H](C(=O)N[C@@H](CC(=O)O)C(=O)N[C@@H](CO)C(=O)N[C@@H](Cc1ccc(O)cc1)C(=O)N[C@@H](CCCNC(=N)N)C(=O)N[C@@H](CCCCN)C(=O)N[C@H](C(=O)N[C@@H](CC(C)C)C(=O)N[C@@H](C)C(=O)N[C@@H](CCC(N)=O)C(=O)N[C@@H](CC(C)C)C(=O)N[C@@H](CCCCN)C(=O)N[C@@H](C)C(=O)N[C@@H](CCCNC(=N)N)C(=O)N[C@@H](CCC(N)=O)C(=O)N[C@@H](CC(=O)O)C(=O)N[C@H](C(=O)N[C@@H](CC(C)C)C(=O)N[C@@H](C)C(=O)N[C@@H](CCCNC(=N)N)C(=O)N[C@@H](C)C(=O)N[C@@H](C)C(=O)N[C@@H](CCCNC(=N)N)C(=O)N[C@@H](C)C(=O)N[C@@H](C)C(=O)N[C@@H](CCCNC(=N)N)C(N)=O)[C@@H](C)CC)C(C)C)[C@@H](C)O)[C@@H](C)CC) [Trans-3-hexenoyl-YADAIFTDSYRKVLAQLKARQDILARAARAAR-NH2 (SEQ ID NO: 31)] | 0.1
YADAIFTDSYRKVLAQLKARQDLLARAARAAR (HELM PEPTIDE1{[CC/C=C/CC(=O)[*:2]].Y.A.D.A.I.F.T.D.S.Y.R.K.V.L.A.Q.L.K.A.R.Q.D.L.L.A.R.A.A.R.A.A.R.[am]}$$$$V2.0; SMILES CC/C=C/CC(=O)N[C@@H](Cc1ccc(O)cc1)C(=O)N[C@@H](C)C(=O)N[C@@H](CC(=O)O)C(=O)N[C@@H](C)C(=O)N[C@H](C(=O)N[C@@H](Cc1ccccc1)C(=O)N[C@H](C(=O)N[C@@H](CC(=O)O)C(=O)N[C@@H](CO)C(=O)N[C@@H](Cc1ccc(O)cc1)C(=O)N[C@@H](CCCNC(=N)N)C(=O)N[C@@H](CCCCN)C(=O)N[C@H](C(=O)N[C@@H](CC(C)C)C(=O)N[C@@H](C)C(=O)N[C@@H](CCC(N)=O)C(=O)N[C@@H](CC(C)C)C(=O)N[C@@H](CCCCN)C(=O)N[C@@H](C)C(=O)N[C@@H](CCCNC(=N)N)C(=O)N[C@@H](CCC(N)=O)C(=O)N[C@@H](CC(=O)O)C(=O)N[C@@H](CC(C)C)C(=O)N[C@@H](CC(C)C)C(=O)N[C@@H](C)C(=O)N[C@@H](CCCNC(=N)N)C(=O)N[C@@H](C)C(=O)N[C@@H](C)C(=O)N[C@@H](CCCNC(=N)N)C(=O)N[C@@H](C)C(=O)N[C@@H](C)C(=O)N[C@@H](CCCNC(=N)N)C(N)=O)C(C)C)[C@@H](C)O)[C@@H](C)CC) [Trans-3-hexenoyl-YADAIFTDSYRKVLAQLKARQDLLARAARAAR-NH2 (SEQ ID NO: 32)] | 0.11
